Assays:
AMZ-1 = target: T1, AMZ-1 (Achromobacter mucicolens, UniProt Z9OND0BR39); assay: nitrocefin hydrolysis, UV-VIS spectrophotometry; assay type: biochemical
T1 construct: ORF without signal peptide (cleavage 26/27) in pColdI, E. coli BL21(DE3); His-tag removed with enterokinase

[1] = tested on: CC1(C)S[C@@H]2[C@H](NC(=O)Cc3ccccc3)C(=O)N2[C@H]1C(=O)O; assay: UV-VIS hydrolysis, initial rates, Michaelis-Menten fit; assay type: biochemical, Achromobacter mucicolens; settings: 10 mM phosphate pH 7.0, 37°C
Text: (§1) UV-VIS hydrolysis, initial rates, Michaelis-Menten fit on AMZ-1

[2] = tested on: CC(=O)OCC1=C(C(=O)O)N2C(=O)[C@@H](NC(=O)Cc3cccs3)[C@H]2SC1; assay: as above; assay type: biochemical, Achromobacter mucicolens; settings: 10 mM phosphate pH 7.0, 37°C
Text: as §1

[3] = tested on: CC1(C)S[C@@H]2[C@H](NC(=O)[C@H](N)c3ccc(O)cc3)C(=O)N2[C@H]1C(=O)O; assay: as above; assay type: biochemical, Achromobacter mucicolens; settings: 10 mM phosphate pH 7.0, 37°C
Text: as §1

[4] = tested on: CO[C@@]1(NC(=O)Cc2cccs2)C(=O)N2C(C(=O)O)=C(COC(N)=O)CS[C@@H]21; assay: as above; assay type: biochemical, Achromobacter mucicolens; settings: 10 mM phosphate pH 7.0, 37°C
Text: as §1

Row | Compound | IC50 (AMZ-1) [µM] | Km [1] [µM] | kcat [1] [s⁻¹] | kcat/Km [1] [M⁻¹ s⁻¹] | Km [2] [µM] | kcat [2] [s⁻¹] | kcat/Km [2] [M⁻¹ s⁻¹] | Km [3] [µM] | kcat [3] [s⁻¹] | kcat/Km [3] [M⁻¹ s⁻¹] | Km [4] [µM] | kcat [4] [s⁻¹] | kcat/Km [4] [M⁻¹ s⁻¹]
1 | NC(=O)[C@@H]1CC[C@@H]2CN1C(=O)N2OS(=O)(=O)O [avibactam] | 0.00082 | – | – | – | – | – | – | – | – | – | – | – | –
2 | C[C@]1(Cn2ccnn2)[C@H](C(=O)O)N2C(=O)C[C@H]2S1(=O)=O [tazobactam] | 1090 | – | – | – | – | – | – | – | – | – | – | – | –
3 | AMZ-1 (Achromobacter mucicolens) | – | 108.84 ± 8.12 | 3.93 ± 0.13 | 36300 ± 150 | 564.23 ± 56.35 | 5.88 ± 0.39 | 10400 ± 40 | 14.65 ± 1.274 | 0.0947 ± 0.005 | 6780 ± 1650 | 18.16 ± 3.88 | 0.0805 ± 0.0137 | 4540 ± 660
